In PMC5458760, “The LOTUS domain is a conserved DEAD-box RNA helicase regulator essential for the recruitment of Vasa to the germ plasm and nuage” (Genes & Development, 2017):
One block for each binder: values may come before it.

Tests used:
[1] = biological target: T1, Vasa 463–661 (Drosophila, UniProt P09052 463-661); assay: ITC; Vasa 463–661 titrated to the Oskar LOTUS domain (144–240); 25°C; VP-ITC; 20 mM Tris pH 7.5, 150 mM sodium chloride; curve fitted with the LOTUS monomer concentration; conditions: both partners purified
T1 construct: Vasa, Drosophila, C-terminal RecA-like domain with the C-terminal extension, residues 463-661; Details are in the Supplemental Material; also called Vasa-CTD; source: E. coli (Rosetta 2), purified
T1 sequence (looked up): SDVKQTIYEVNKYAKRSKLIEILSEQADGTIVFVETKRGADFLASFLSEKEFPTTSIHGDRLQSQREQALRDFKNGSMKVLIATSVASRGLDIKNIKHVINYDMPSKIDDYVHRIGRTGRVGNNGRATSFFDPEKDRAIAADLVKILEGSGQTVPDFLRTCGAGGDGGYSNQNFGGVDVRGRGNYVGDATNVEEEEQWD

[2] = biological target: T2, Vasa 200–661 (Drosophila, UniProt P09052 200-661); assay: pull-down; GST pull-down with purified recombinant proteins; GST or GST fusion as bait (8.75-10 µM in the legends), Vasa as prey (17.5-20 µM in the legends); samples on an SDS gel stained with Coomassie brilliant blue; conditions: both partners purified
T2 construct: Vasa, Drosophila DEAD-box RNA helicase, helicase core with the C-terminal extension, residues 200-661; It may be the same preparation as His-Vasa 200–661; Construct details are in the Supplemental Material; also called Vasa helicase core; source: E. coli (Rosetta 2), purified
T2 sequence (looked up): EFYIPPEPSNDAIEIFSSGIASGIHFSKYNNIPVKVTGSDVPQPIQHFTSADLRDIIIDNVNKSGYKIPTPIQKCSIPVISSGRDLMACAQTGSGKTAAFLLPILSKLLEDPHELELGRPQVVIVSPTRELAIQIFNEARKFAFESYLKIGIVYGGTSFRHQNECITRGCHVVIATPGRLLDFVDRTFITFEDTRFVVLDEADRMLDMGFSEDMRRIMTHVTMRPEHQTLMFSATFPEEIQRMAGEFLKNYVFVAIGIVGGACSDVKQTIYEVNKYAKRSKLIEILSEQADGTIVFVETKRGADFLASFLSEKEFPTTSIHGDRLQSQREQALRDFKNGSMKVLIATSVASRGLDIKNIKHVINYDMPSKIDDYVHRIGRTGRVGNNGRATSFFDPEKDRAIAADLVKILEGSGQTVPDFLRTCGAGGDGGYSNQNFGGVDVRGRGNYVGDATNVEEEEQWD

[3] = biological target: T3, His-Vasa 200–661 (Drosophila, UniProt P09052 200-661); assay: as above; conditions: both partners purified
T3 construct: Vasa, Drosophila DEAD-box RNA helicase, helicase core with the C-terminal extension, residues 200-661; Construct details are in the Supplemental Material; also called His-tagged Vasa 200–661; wild-type Vasa helicase core; source: E. coli (Rosetta 2), purified
T3 sequence (looked up): T2 sequence (looked up)

[4] = biological target: T4, Vasa 463–623 (Drosophila, UniProt P09052 463-623); assay: crystal structure; Oskar 139–240 and Vasa 463–623 mixed in a 2:1 molar ratio; hanging drop vapor diffusion at 18°C; 1.4 Å; molecular replacement; conditions: both partners purified
T4 construct: Vasa, Drosophila, C-terminal RecA-like domain without the C-terminal extension, residues 463-623; also called Vasa-CTD lacking the C-terminal extension; Vasa C-terminal RecA-like domain; source: E. coli (Rosetta 2), purified
T4 sequence (looked up): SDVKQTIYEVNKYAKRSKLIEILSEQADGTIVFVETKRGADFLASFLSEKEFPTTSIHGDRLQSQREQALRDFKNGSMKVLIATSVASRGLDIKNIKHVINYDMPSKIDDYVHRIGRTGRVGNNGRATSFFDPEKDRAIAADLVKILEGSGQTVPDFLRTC

[5] = biological target: the molecule itself; assay: as above

- Kd [1]: ~10 µM
B1: Oskar LOTUS domain (amino acids 144–240) (domain or fragment, Drosophila, UniProt P25158 144-240, looked up)
chain: SNYISVREEYPDIDSEVRAILLSHAQNGITISSIKSEYRKLTGNPFPLHDNVTDFLLTIPNVTAECSESGKRIFNLKASLKNGHLLDMVLNQKERTS
notes: Oskar, Drosophila, LOTUS domain, residues 144-240; residue numbers are those of the long isoform; The legend notes that the LOTUS domain of Oskar forms dimers (Jeske et al. 2015); The ITC curve was fitted with the monomer concentration; Details are in the Supplemental Material; also called Osk 144–240; Oskar 144–240 (LOTUS); source: E. coli (Rosetta 2), purified

- binding result [2]: binds
- binding result [3]: binds
B2: GST-Oskar LOTUS (amino acids 139–240) (domain or fragment, Drosophila, UniProt P25158 139-240, looked up)
chain: MTIIESNYISVREEYPDIDSEVRAILLSHAQNGITISSIKSEYRKLTGNPFPLHDNVTDFLLTIPNVTAECSESGKRIFNLKASLKNGHLLDMVLNQKERTS
notes: Oskar, Drosophila, LOTUS (eLOTUS) domain with its C-terminal extension, residues 139-240; residue numbers are those of the long isoform; Construct details are in the Supplemental Material; also called Oskar GST-LOTUS; GST fusion of the LOTUS domain of Oskar; source: E. coli (Rosetta 2), purified

- binding result [4]: binds
B3: Oskar 139–240 (LOTUS domain) (domain or fragment, Drosophila, UniProt P25158 139-240, looked up)
chain: B2 chain
notes: Oskar, Drosophila, LOTUS (eLOTUS) domain with its C-terminal extension, residues 139-240; residue numbers are those of the long isoform; This is a dimer in the crystal; No tag is stated for the crystallised protein; also called LOTUS domain of Oskar (amino acids 139–240); eLOTUS; source: E. coli (Rosetta 2), purified
- stoichiometry N [5]: 2
